Source: the supplement of paper PMC9170038

Tested on: MS2 coat protein
Experiment: apparent KD of MS2 coat protein; higher = weaker reporter binding
Conditions: Eterna round: R107
In short: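 Apparent KD stands for the median, per design, of fits to normalised cluster binding curves. The curves came from titrating on-chip-transcribed RNA switches on Illumina sequencing clusters with SNAP-549-labelled MS2 coat protein, twofold from 0.7 or 1.5 nM to 3 µM. Buffer was 100 mM Tris-HCl pH 7.5, 80 mM KCl, 4 mM MgCl2, without or with constant ligand.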

[1] = input ligand: theophylline 20 uM
[2] = input ligand: theophylline 2 mM
[3] = input ligand: tryptophan 2.4 mM

Sequence | apparent KD of MS2 coat protein (input ligand: arginine 13.2 mM) | apparent KD of MS2 coat protein [1] | apparent KD of MS2 coat protein [2] | apparent KD of MS2 coat protein (input ligand: none) | apparent KD of MS2 coat protein [3]
CCUAUGCAGUCGGCCGCCACUGAACAUGAGGAUCACCCAUGUAAUUAAAAUUAUGAUCCUGAAAUCAGGACCGGGACUGUAUAGG [Ex Tryptophan B 5] | 28.6 nM | 165 nM | 431 nM | – | –
UCGGAUGCGGCGGCCGCCACUCGCGGAUAACGAUAGCUUAACAUGAGGAUCACCCAUGUGUCAUGGAGGACCGGGCCCAUACCGU [pbpmullin] | 18.8 nM | 36.4 nM | 26.3 nM | – | –
UUCGUUUACGGAAGGAGCGACGGACAUCGGUGAACGACGCACAUGAGGAUCACCCAUGUACGUCAGGUAGGUCGCCGUUAAGAGU [Somama] | 23 nM | 27.7 nM | 19.6 nM | 17.4 nM | 19.2 nM
GGUUGGUGUAGAGAUAUAUUGAUUACUGAAGGAGCGGGAAUAAACCCAGGUAGGUCGCAGAGAUCCACAUGAGGAUCACCCAUGU [!0.O] | 32 nM | 54.6 nM | 53 nM | 36.9 nM | 35.3 nM
AAGACGGUCGGAAGGAGCGGUACAUGAGGAUCACCCAUGUACUUCUGGGCAUCCGUAGUGUGCCAGGUAGGUCGCCGAUUGCGGG [XArg-B12] | 32.7 nM | 36.3 nM | 24.9 nM | 22.4 nM | 22.8 nM
CUAUGCAGGUCGGCCGCCACUACACACAUGAGGAUCACCCAUGUAGUUACUGGGUGAAGUGGCAGUAGGACCGGGACCUGCAUAU [Brourdmod07] | 273 nM | 534 nM | 799 nM | – | –
CAUAUAUAAGCGGCCGCCACUUACUCAUGAGGUAACAACAUGAGGAUCACCCAUGUUUGAGGAUCAAGGACCGGGCUUAUAUAUG [AstrosSSTryB#5] | 27 nM | 27.3 nM | 28.5 nM | – | –
UGACAUUGCUCAGAUACCAGACAUGAGGAUCACCCAUGUGCCAAAUAAACGUACAUAAAUGUCCCUUGGCAGCUGAGCAAUGUCU [TheoBX 11 #MS2Left #Theo2] | 46.8 nM | 87.5 nM | – | – | 59.1 nM
UAUACAUGAGGAUCACCCAUGUGCCAUGAUACCAGACAUGAAAAUGUCCCUUGGCAGCAUGGGAAAUGUAUAGCGGGAAACCCGA [Slatina] | 52.7 nM | 201 nM | – | – | 60.8 nM
AGCAUUGUAACAGAUACCAGACUUUUAAUGCCUCUAAUAACAUGAGGAUCACCCAUGUAUGUCCCUUGGCAGCUGUUAUGAUGCA [JR_ExcTheophyB_Sub008] | 68.1 nM | 171 nM | – | – | 112 nM
ACAUUUAACUGAAGGAGCGUGAUAUUUACAUGAGGAUCACCCAUGUCUUUCAUGAUAUAUUCACAGGUAGGUCGCAGACUAAUGA [JR_ExcArginiB_Sub006] | 118 nM | 160 nM | 306 nM | 125 nM | 184 nM
AACAUACAAUAAAAGGUGGAAAUAAGGCGGCGAGGACCGGUACGGCCGCCACUCGCGUACAUGAGGAUCACCCAUGUCUGAAACU [Same State - Tryptophan A (Freestyle 2)] | 12.5 nM | 24.2 nM | 28.8 nM | 22.8 nM | 19.1 nM
AUUAACAUGAGGAUCACCCAUGUGGCCCACCGAGGACCGGUACGGCCGCCACUCGUCGGAAAGGCUAAAUUUAUGAAGUCCAAAA [theeternabot_sameState_MS2_Trp_A_40] | 18.6 nM | 25.4 nM | 17 nM | – | –
UGGGUACCGACGGCCGCCACUGACUAUAGACAUGAGGAUCACCCAUGUAGAGAUCCUAGACUACCCAGGACCGGGUCUGGUGCUA [Exclusion Tryptophane B GF6] | 61 nM | 165 nM | 149 nM | – | –
UGUAUGGACUGAAGGAGCGGGAAAUAAACCUGAGGAUCACCCAGGUAAUAGGCGAAAGCCACCCAGGUAGGUCGCAGUCCAUACU | 10.7 nM | 14.3 nM | 12 nM | 9.91 nM | 10.6 nM
UGUAACAUGAGGAUCACCCAUGUGAGUGAUACCAGAUAAGUAGUAGUCCCUUGGCAGCAUAUUGGGCGAGUGUAUAGUCUAUACG [Same State - Theophylline A (Freestyle 8)] | 111 nM | 183 nM | – | – | 150 nM
UUACCGUAAGGUAUACCGGUCUACAAUAAUCGAGGACCGGUACGGCCGCCACUCGAUGUGUAAUCACAUGAGGAUCACCCAUGUA [Tryptophan A 19] | 21.1 nM | 27.7 nM | 27.4 nM | – | –
